Square brackets hold non-standard residues; d marks the D form. Ends that are not written are not given here. * marks the point of attachment. FITC = O=C1OC2(c3ccc(O)cc3Oc3cc(O)ccc32)c2ccc(NC(=S)*)cc21; Biotin = O=C1N[C@H]2[C@H](CS[C@H]2CCCCC(=O)*)N1; pT = C[C@@H](OP(=O)(O)O)[C@H](N)C(=O)O; Ahx = NCCCCCC(=O)O

For assay [1], the system named is HSP70 steady-state levels in HEK-293 cells. Briefly: Cycloheximide chase of HSP70 steady-state levels, HEK-293. In kind it is cell-based. The settings on record: Flag immunoblot, representative, Fig. S1. As for the experimental part:
HEK293 and COS-7 cells were acquired from the UNC Lineberger Comprehensive Cancer Center Tissue Culture Facility. Cultures were maintained in Dulbecco’s Modified Eagle Medium with 10% fetal bovine serum at 37 °C and 5% CO2. Using the manufacturers’ instructions, X-tremeGENE 9 was used to transfect cells with plasmid DNA except for NanoBiT constructs, in which case we used Lipofectamine 3000 (Thermo Fisher Scientific). Where indicated, twenty-four hours post-transfection, cells were treated with 20 μM MG-132 (Selleck Chemicals) for 6 h or 100 μM cycloheximide (Sigma-Aldrich) for the stated duration.
Samples were collected in a lysis buffer composed of 50 mM Tris-HCl (pH 7.4), 150 mM NaCl, 2 mM EDTA, and 1% Triton X-100, supplemented with 1X Halt protease and phosphatase inhibitor (Thermo Scientific). The samples were then sonicated and combined with Laemmli sample buffer (Bio-Rad). The lysates were resolved on 4–15% TGX Stain-Free gels (Bio-Rad) and transferred to PVDF membranes (Bio-Rad). The membranes were blocked in 5% milk and incubated with primary antibodies (Table S3) overnight at 4°C. Following this, HRP-conjugated secondary antibodies (Cell Signaling Technology) were applied. Detection was performed using Lumigen ECL Ultra (Lumigen, tma-100), and the blots were imaged with the ChemiDoc Imaging System (BioRad).
(A western blot detects proteins with antibodies after separation by electrophoresis.)

For another assay, the system named is HSC70. The assay is described as follows: Cell-free ubiquitination of HSC70 by CHIP. The settings on record: 100 nM Uba1, 1 μM UBE2D2, 200 nM Hsc70, 100 μM Ub, 1 μM CHIP, pH 8.0, 15 min, room temperature; three experiments; p = 0.0774; Fig. 1K. In kind it is biochemical, human. The procedure:
Ubiquitination assays were conducted using recombinant human HSC70, fluorescently tagged on its N-terminus. All assay components except ubiquitin were premixed on ice in a BSA-containing buffer (20 mM HEPES, pH 8.0; 200 mM NaCl; 0.5 mg/mL BSA). Reactions were initiated by adding ubiquitin and were allowed to proceed at room temperature unless specified otherwise. The reactions contained a final concentration of 100 nM Uba1, 1 μM UBE2D2, 200 nM Hsc70, 100 μM Ub, 5 mM MgCl2-ATP, and 1 μM CHIP. The reactions proceeded for 15 minutes before being quenched with SDS loading buffer. The quenched samples were separated by molecular weight via SDS-PAGE in non-reducing conditions using GenScript SurePAGE 4–12% gels. The CHIP-dependent ubiquitination of Hsc70 was visualized and quantified through fluorescent scanning on an Amersham Typhoon 5.

In assay [2] the target is T1, recombinant full-length CHIP-WT (UniProt Q9UNE7 1-303).
T1 chain: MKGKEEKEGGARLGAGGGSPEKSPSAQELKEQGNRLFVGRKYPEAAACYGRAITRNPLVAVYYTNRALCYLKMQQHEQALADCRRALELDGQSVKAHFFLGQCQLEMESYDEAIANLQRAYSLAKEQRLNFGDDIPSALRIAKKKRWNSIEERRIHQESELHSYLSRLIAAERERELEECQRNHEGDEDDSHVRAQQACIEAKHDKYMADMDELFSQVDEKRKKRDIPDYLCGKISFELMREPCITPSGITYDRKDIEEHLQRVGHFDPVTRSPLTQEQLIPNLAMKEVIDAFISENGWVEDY
The assay is described as follows: FP.

For assay [3], the target named is recombinant full-length CHIP-G132N (UniProt Q9UNE7 1-303, G132N). Briefly: FP.
Assay [4] deals with T2, recombinant full-length CHIP-WT (UniProt Q9UNE7 1-303).
T2 sequence (looked up): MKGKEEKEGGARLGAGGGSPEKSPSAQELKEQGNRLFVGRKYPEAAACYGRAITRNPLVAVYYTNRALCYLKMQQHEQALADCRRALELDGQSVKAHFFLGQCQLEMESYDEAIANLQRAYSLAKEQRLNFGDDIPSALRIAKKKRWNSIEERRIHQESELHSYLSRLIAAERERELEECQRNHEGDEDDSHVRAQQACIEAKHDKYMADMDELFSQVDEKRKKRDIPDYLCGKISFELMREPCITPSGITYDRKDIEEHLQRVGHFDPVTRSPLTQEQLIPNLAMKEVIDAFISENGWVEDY
The assay is described as follows: fluorescence polarisation; 20 nM N-terminally FITC-labelled peptide, recombinant CHIP constructs at increasing concentrations, 30 minutes at room temperature; one site/total binding fit with Bmax constrained to 100. The settings on record: both partners purified. On the technique in general: Polarisation of emitted light reports the rotation of a fluorescent probe.

The target in assay [5] is T3, recombinant full-length CHIP-G132N (UniProt Q9UNE7 1-303, G132N).
T3 construct: CHIP, full-length recombinant protein with G132N
T3 sequence (looked up): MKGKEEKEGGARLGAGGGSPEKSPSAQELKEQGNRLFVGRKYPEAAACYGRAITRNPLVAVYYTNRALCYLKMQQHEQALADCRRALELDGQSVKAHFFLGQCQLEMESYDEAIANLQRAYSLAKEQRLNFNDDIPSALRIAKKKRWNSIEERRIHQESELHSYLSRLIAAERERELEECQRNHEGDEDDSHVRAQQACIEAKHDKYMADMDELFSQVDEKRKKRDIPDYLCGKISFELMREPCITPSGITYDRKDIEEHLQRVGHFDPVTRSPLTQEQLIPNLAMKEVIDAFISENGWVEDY
Described as above. The settings on record: both partners purified.

Assay [6] concerns the target T4, CHIP-TPR (21–154) (UniProt Q9UNE7 21-154).
T4 construct: also called extended TPR domain of CHIP
T4 sequence (looked up): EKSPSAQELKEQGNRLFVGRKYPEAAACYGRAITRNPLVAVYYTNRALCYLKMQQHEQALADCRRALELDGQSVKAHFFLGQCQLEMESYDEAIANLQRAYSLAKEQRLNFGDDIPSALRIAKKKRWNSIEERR
The description is as above. The note with it: both partners purified.

Another assay addresses T5, CHIP-TPR N65S (UniProt Q9UNE7 21-154, N65S).
T5 construct: CHIP, extended TPR domain, residues 21-154, with N65S; control of the BLI experiment; also called CHIP-N65S
T5 sequence (looked up): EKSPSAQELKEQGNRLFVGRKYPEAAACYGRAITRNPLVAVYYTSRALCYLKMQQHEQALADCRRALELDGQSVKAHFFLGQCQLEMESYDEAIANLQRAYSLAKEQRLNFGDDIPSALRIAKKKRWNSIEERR
The assay is described as follows: BLI; BLItz, biotin peptides loaded on streptavidin sensors, TPR protein constructs at 1 to 25 μM; 20 mM HEPES, 150 mM NaCl, 5 mM β-mercaptoethanol, pH 7.2; Kd=koff/kon. The settings on record: both partners purified. (In general: Biolayer interferometry detects binding as a change in optical thickness at a sensor tip.)

For a further assay, the target named is T6, CHIP-TPR G132S (UniProt Q9UNE7 21-154, G132S).
T6 construct: CHIP, extended TPR domain, residues 21-154, with G132S; site modification control of the BLI experiment; also called CHIP-G132S
T6 sequence (looked up): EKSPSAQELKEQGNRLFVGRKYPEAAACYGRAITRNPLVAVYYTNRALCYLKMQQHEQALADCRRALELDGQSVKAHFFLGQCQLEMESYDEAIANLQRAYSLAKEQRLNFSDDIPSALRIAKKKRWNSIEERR
Described as above. The note with it: both partners purified.

Assay [7] deals with T4, CHIP-TPR (21–154). The assay is described as follows: crystal structure; CHIP-TPR co-crystallised with peptide at a 3:1 peptide:protein ratio, sitting drop vapor diffusion at room temperature; 0.2 M lithium sulfate, 0.1 M Tris-HCl, pH 8.5, 30% PEG 4000. The settings on record: both partners purified.

For “HSP70-T636A: phospho-null version of HSP70”, the “percent change of HSP70 level from time 0” value in assay [1] (cycloheximide +MG132, 6 h (column from layout)) is “+31%”; in assay [1] (cycloheximide, 6 h, without MG132 (column from layout)), -84%.

B1: CHIP-WT: wild-type CHIP, E3 ligase co-chaperone (protein)
chain: MKGKEEKEGGARLGAGGGSPEKSPSAQELKEQGNRLFVGRKYPEAAACYGRAITRNPLVAVYYTNRALCYLKMQQHEQALADCRRALELDGQSVKAHFFLGQCQLEMESYDEAIANLQRAYSLAKEQRLNFGDDIPSALRIAKKKRWNSIEERRIHQESELHSYLSRLIAAERERELEECQRNHEGDEDDSHVRAQQACIEAKHDKYMADMDELFSQVDEKRKKRDIPDYLCGKISFELMREPCITPSGITYDRKDIEEHLQRVGHFDPVTRSPLTQEQLIPNLAMKEVIDAFISENGWVEDY
For B1, in the assay on HSC70, the “ubiquitination of HSC70” value was “not different”.

B2: N-FITC-Ahx-GSGP(pT)IEEVD (peptide)
peptide: {FITC-Ahx}-GSGP[pT]IEEVD
notes: tracer of the fluorescence polarisation assay; also called pEEVD; phosphorylated EEVD peptide; source: synthetic peptide (Lifetein or Genscript)
For B2, the dissociation constant (Kd) was determined as 46 µM in assay [2] and 96 µM in assay [3]. For the same molecule, the binding result (in [4]; in assay [5]; with CHIP-TPR (21–154) [6]) was “binds” in each case.

B3: amino-terminal biotin-labeled HSP70 tail peptide biotin-GSGSGPTIEEVD (peptide)
peptide: Biotin-GSGSGPTIEEVD
notes: C-terminal tail of HSP70; loaded on streptavidin sensors for BLI; also called biotin-EEVD; source: synthetic peptide, bought: Lifetein
In the case of B3, the binding result with CHIP-TPR N65S and with CHIP-TPR G132S was “binds” each time.

B4: unphosphorylated HSP(C)70 peptide GPTIEEVD (peptide)
peptide: GPTIEEVD
notes: C-terminal tail of HSP70 (T636 is the third residue); used for co-crystallisation with CHIP-TPR; also called HSP70 peptide; HSP70 tail; source: synthetic peptide (Lifetein or Genscript)
Turning to B4, the binding result with CHIP-TPR (21–154) [7] is recorded as “binds”.

B5: phosphorylated HSP(C)70 peptide GP(pT)IEEVD (peptide)
peptide: GP[pT]IEEVD
notes: used for co-crystallisation with CHIP-TPR; also called pEEVD; pT-HSP70 peptide; source: synthetic peptide (Lifetein or Genscript)
Turning to B5, in the assay with CHIP-TPR (21–154) [7], the binding result is “binds”.

B6: amino-terminal biotin-labeled pT-HSP70 tail peptide biotin-GSGSGP(pT)IEEVD (peptide)
peptide: Biotin-GSGSGP[pT]IEEVD
notes: loaded on streptavidin sensors for BLI; also called biotin-pEEVD; pEEVD; source: synthetic peptide, bought: Lifetein
Take B6: the binding result with CHIP-TPR N65S and in the assay with CHIP-TPR G132S was “binds” in each case.

In general, Kd refers to the free concentration of one partner at which half of the binding sites on the other are occupied at equilibrium, for simple one-to-one binding.
